Experimental data: patent US20130005646A1 (Novo Nordisk, published 2013)
Starred links: 1 amine or outer side, 2 acyl side, 3 side chain; linkers in the order of their positions; H or OH if unused. Positions of bridges follow the written chain, without caps; N, C: chain ends. *: point of attachment. C20 diacid = O=C(O)CCCCCCCCCCCCCCCCCCC(=O)*; 19‑carboxyheptadecanoyl = not defined here; γGlu = O=C(O)[C@H](CCC(=O)[*:2])N[*:1]; AEEA = NCCOCCOCC(=O)O

T1: human calcitonin (a) receptor (human, UniProt P30988 25-474)
T1 sequence (looked up): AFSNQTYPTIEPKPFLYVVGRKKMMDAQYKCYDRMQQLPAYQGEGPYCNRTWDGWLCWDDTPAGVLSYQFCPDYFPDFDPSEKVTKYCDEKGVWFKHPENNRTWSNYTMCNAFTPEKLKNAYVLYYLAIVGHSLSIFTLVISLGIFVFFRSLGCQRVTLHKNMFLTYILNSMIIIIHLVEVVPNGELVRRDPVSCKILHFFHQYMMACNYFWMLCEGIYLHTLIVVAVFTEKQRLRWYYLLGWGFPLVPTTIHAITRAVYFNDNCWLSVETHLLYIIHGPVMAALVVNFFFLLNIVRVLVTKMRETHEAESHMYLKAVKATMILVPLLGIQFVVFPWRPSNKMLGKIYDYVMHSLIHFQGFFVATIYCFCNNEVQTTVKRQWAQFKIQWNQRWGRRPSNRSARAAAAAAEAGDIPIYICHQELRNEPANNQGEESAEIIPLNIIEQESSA

T2: human amylin 3(a) receptor (human calcitonin receptor + RAMP-3) (human, UniProt P30988 25-474; O60896 24-148)
T2 sequence (looked up) 1: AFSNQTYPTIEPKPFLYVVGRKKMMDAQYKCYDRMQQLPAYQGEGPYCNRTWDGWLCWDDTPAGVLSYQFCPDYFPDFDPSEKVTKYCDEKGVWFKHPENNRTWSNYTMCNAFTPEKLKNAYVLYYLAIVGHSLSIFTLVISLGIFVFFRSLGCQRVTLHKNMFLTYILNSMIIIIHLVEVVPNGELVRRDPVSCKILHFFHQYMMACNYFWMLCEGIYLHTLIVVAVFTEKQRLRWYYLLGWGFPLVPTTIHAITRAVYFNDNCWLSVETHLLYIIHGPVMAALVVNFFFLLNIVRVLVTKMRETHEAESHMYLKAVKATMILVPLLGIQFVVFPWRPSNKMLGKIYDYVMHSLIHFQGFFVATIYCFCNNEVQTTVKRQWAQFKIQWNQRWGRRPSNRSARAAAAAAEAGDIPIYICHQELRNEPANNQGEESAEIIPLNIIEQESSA
T2 sequence (looked up) 2: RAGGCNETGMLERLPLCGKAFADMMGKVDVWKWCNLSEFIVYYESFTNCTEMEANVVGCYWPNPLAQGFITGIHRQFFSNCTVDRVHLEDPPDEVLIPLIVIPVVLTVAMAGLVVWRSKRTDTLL


Columns and labels:
[1] = molecular target: T1, human calcitonin (a) receptor; test: cell-based or functional assay
[2] = molecular target: T2, human amylin 3(a) receptor (human …); test: cell-based or functional assay

| Binder | CTa receptor human EC50 [1] [nM] | Amylin receptor human EC50 [2] [nM] |
| --- | --- | --- |
| {C20 diacid-γGlu}-ERECNTATCATQRLANFLVHSSNNFGPILPPTNVGSNTP-NH2 (disulfide 4-9; SMILES CC[C@H](C)[C@H](NC(=O)[C@@H]1CCCN1C(=O)CNC(=O)[C@H](Cc1ccccc1)NC(=O)[C@H](CC(N)=O)NC(=O)[C@H](CC(N)=O)NC(=O)[C@H](CO)NC(=O)[C@H](CO)NC(=O)[C@H](Cc1c[nH]cn1)NC(=O)[C@@H](NC(=O)[C@H](CC(C)C)NC(=O)[C@H](Cc1ccccc1)NC(=O)[C@H](CC(N)=O)NC(=O)[C@H](C)NC(=O)[C@H](CC(C)C)NC(=O)[C@H](CCCNC(=N)N)NC(=O)[C@H](CCC(N)=O)NC(=O)[C@@H](NC(=O)[C@H](C)NC(=O)[C@@H]1CSSC[C@H](NC(=O)[C@H](CCC(=O)O)NC(=O)[C@H](CCCNC(=N)N)NC(=O)[C@H](CCC(=O)O)NC(=O)CC[C@H](NC(=O)CCCCCCCCCCCCCCCCCCC(=O)O)C(=O)O)C(=O)N[C@@H](CC(N)=O)C(=O)N[C@@H]([C@@H](C)O)C(=O)N[C@@H](C)C(=O)N[C@@H]([C@@H](C)O)C(=O)N1)[C@@H](C)O)C(C)C)C(=O)N[C@@H](CC(C)C)C(=O)N1CCC[C@H]1C(=O)N1CCC[C@H]1C(=O)N[C@H](C(=O)N[C@@H](CC(N)=O)C(=O)N[C@H](C(=O)NCC(=O)N[C@@H](CO)C(=O)N[C@@H](CC(N)=O)C(=O)N[C@H](C(=O)N1CCC[C@H]1C(N)=O)[C@@H](C)O)C(C)C)[C@@H](C)O) [N-alpha-[(S)-4-Carboxy-4-(19-carboxynonadecanoylamino)butyryl]-Glu-Arg-[Glu1,Pro37]-pramlintide] | 0.061 | 0.063 |
| {19‑carboxyheptadecanoyl-γGlu-AEEA-AEEA}-KCNTATCATQRLAEFLHHSSSNFGPILPPTNVGSHTY-NH2 (disulfide 2-7; reading uncertain; also: printed as N-alpha-[2-(2-{2-[2-(2-{2-[(S)-4-Carboxy-4-(19-carboxyheptadecanoylamino)butyrylamino]ethoxy}ethoxy)acetylamino]ethoxy}ethoxy)acetyl]-[Glu14,His17,Ser21,His35]-pramlintide) | 0.277 | 0.434 |
| {C20 diacid-γGlu}-KCNTATCATQRLAEFLHHSSNNFGPILPPTNHGSNTY-NH2 (disulfide 2-7; SMILES CC[C@H](C)[C@H](NC(=O)[C@@H]1CCCN1C(=O)CNC(=O)[C@H](Cc1ccccc1)NC(=O)[C@H](CC(N)=O)NC(=O)[C@H](CC(N)=O)NC(=O)[C@H](CO)NC(=O)[C@H](CO)NC(=O)[C@H](Cc1c[nH]cn1)NC(=O)[C@H](Cc1c[nH]cn1)NC(=O)[C@H](CC(C)C)NC(=O)[C@H](Cc1ccccc1)NC(=O)[C@H](CCC(=O)O)NC(=O)[C@H](C)NC(=O)[C@H](CC(C)C)NC(=O)[C@H](CCCNC(=N)N)NC(=O)[C@H](CCC(N)=O)NC(=O)[C@@H](NC(=O)[C@H](C)NC(=O)[C@@H]1CSSC[C@H](NC(=O)[C@H](CCCCN)NC(=O)CC[C@H](NC(=O)CCCCCCCCCCCCCCCCCCC(=O)O)C(=O)O)C(=O)N[C@@H](CC(N)=O)C(=O)N[C@@H]([C@@H](C)O)C(=O)N[C@@H](C)C(=O)N[C@@H]([C@@H](C)O)C(=O)N1)[C@@H](C)O)C(=O)N[C@@H](CC(C)C)C(=O)N1CCC[C@H]1C(=O)N1CCC[C@H]1C(=O)N[C@H](C(=O)N[C@@H](CC(N)=O)C(=O)N[C@@H](Cc1c[nH]cn1)C(=O)NCC(=O)N[C@@H](CO)C(=O)N[C@@H](CC(N)=O)C(=O)N[C@H](C(=O)N[C@@H](Cc1ccc(O)cc1)C(N)=O)[C@@H](C)O)[C@@H](C)O) [N-alpha-[(S)-4-Carboxy-4-(19-carboxynonadecanoylamino)butyryl]-[Glu14,His17,His32]-pramlintide] | 0.124 | 0.487 |
| {C20 diacid-γGlu}-KCNTATCATQRLAEFLHHSSNNFGPILPPTNVGHNTY-NH2 (disulfide 2-7; SMILES CC[C@H](C)[C@H](NC(=O)[C@@H]1CCCN1C(=O)CNC(=O)[C@H](Cc1ccccc1)NC(=O)[C@H](CC(N)=O)NC(=O)[C@H](CC(N)=O)NC(=O)[C@H](CO)NC(=O)[C@H](CO)NC(=O)[C@H](Cc1c[nH]cn1)NC(=O)[C@H](Cc1c[nH]cn1)NC(=O)[C@H](CC(C)C)NC(=O)[C@H](Cc1ccccc1)NC(=O)[C@H](CCC(=O)O)NC(=O)[C@H](C)NC(=O)[C@H](CC(C)C)NC(=O)[C@H](CCCNC(=N)N)NC(=O)[C@H](CCC(N)=O)NC(=O)[C@@H](NC(=O)[C@H](C)NC(=O)[C@@H]1CSSC[C@H](NC(=O)[C@H](CCCCN)NC(=O)CC[C@H](NC(=O)CCCCCCCCCCCCCCCCCCC(=O)O)C(=O)O)C(=O)N[C@@H](CC(N)=O)C(=O)N[C@@H]([C@@H](C)O)C(=O)N[C@@H](C)C(=O)N[C@@H]([C@@H](C)O)C(=O)N1)[C@@H](C)O)C(=O)N[C@@H](CC(C)C)C(=O)N1CCC[C@H]1C(=O)N1CCC[C@H]1C(=O)N[C@H](C(=O)N[C@@H](CC(N)=O)C(=O)N[C@H](C(=O)NCC(=O)N[C@@H](Cc1c[nH]cn1)C(=O)N[C@@H](CC(N)=O)C(=O)N[C@H](C(=O)N[C@@H](Cc1ccc(O)cc1)C(N)=O)[C@@H](C)O)C(C)C)[C@@H](C)O) [N-alpha-[(S)-4-Carboxy-4-(19-carboxynonadecanoylamino)butyryl]-[Glu14,His17,His34]-pramlintide] | 0.115 | 0.129 |
| {C20 diacid-γGlu}-ERECNTATCATQRLAEFLHHSSNNFGPILPPTNVGSNTP-NH2 (disulfide 4-9; SMILES CC[C@H](C)[C@H](NC(=O)[C@@H]1CCCN1C(=O)CNC(=O)[C@H](Cc1ccccc1)NC(=O)[C@H](CC(N)=O)NC(=O)[C@H](CC(N)=O)NC(=O)[C@H](CO)NC(=O)[C@H](CO)NC(=O)[C@H](Cc1c[nH]cn1)NC(=O)[C@H](Cc1c[nH]cn1)NC(=O)[C@H](CC(C)C)NC(=O)[C@H](Cc1ccccc1)NC(=O)[C@H](CCC(=O)O)NC(=O)[C@H](C)NC(=O)[C@H](CC(C)C)NC(=O)[C@H](CCCNC(=N)N)NC(=O)[C@H](CCC(N)=O)NC(=O)[C@@H](NC(=O)[C@H](C)NC(=O)[C@@H]1CSSC[C@H](NC(=O)[C@H](CCC(=O)O)NC(=O)[C@H](CCCNC(=N)N)NC(=O)[C@H](CCC(=O)O)NC(=O)CC[C@H](NC(=O)CCCCCCCCCCCCCCCCCCC(=O)O)C(=O)O)C(=O)N[C@@H](CC(N)=O)C(=O)N[C@@H]([C@@H](C)O)C(=O)N[C@@H](C)C(=O)N[C@@H]([C@@H](C)O)C(=O)N1)[C@@H](C)O)C(=O)N[C@@H](CC(C)C)C(=O)N1CCC[C@H]1C(=O)N1CCC[C@H]1C(=O)N[C@H](C(=O)N[C@@H](CC(N)=O)C(=O)N[C@H](C(=O)NCC(=O)N[C@@H](CO)C(=O)N[C@@H](CC(N)=O)C(=O)N[C@H](C(=O)N1CCC[C@H]1C(N)=O)[C@@H](C)O)C(C)C)[C@@H](C)O) | 0.378 | 0.136 |
| {19‑carboxyheptadecanoyl-γGlu-AEEA-AEEA}-HCNTATCATQRLAEFLHHSSSNFGPILPPTNVGSHTY-NH2 (disulfide 2-7; reading uncertain; also: printed as N-alpha-[2-(2-{2-[2-(2-{2-[(S)-4-Carboxy-4-(19-carboxyheptadecanoylamino)butyrylamino]ethoxy}ethoxy)acetylamino]ethoxy}ethoxy)acetyl]-[His1,Glu14,His17,Ser21,His35]-pramlintide) | 1.08 | 0.938 |
| {C20 diacid-γGlu}-KCNTATCATQRLAEFLHHSSQNFGPILPPTNVGSHTY-NH2 (disulfide 2-7; SMILES CC[C@H](C)[C@H](NC(=O)[C@@H]1CCCN1C(=O)CNC(=O)[C@H](Cc1ccccc1)NC(=O)[C@H](CC(N)=O)NC(=O)[C@H](CCC(N)=O)NC(=O)[C@H](CO)NC(=O)[C@H](CO)NC(=O)[C@H](Cc1c[nH]cn1)NC(=O)[C@H](Cc1c[nH]cn1)NC(=O)[C@H](CC(C)C)NC(=O)[C@H](Cc1ccccc1)NC(=O)[C@H](CCC(=O)O)NC(=O)[C@H](C)NC(=O)[C@H](CC(C)C)NC(=O)[C@H](CCCNC(=N)N)NC(=O)[C@H](CCC(N)=O)NC(=O)[C@@H](NC(=O)[C@H](C)NC(=O)[C@@H]1CSSC[C@H](NC(=O)[C@H](CCCCN)NC(=O)CC[C@H](NC(=O)CCCCCCCCCCCCCCCCCCC(=O)O)C(=O)O)C(=O)N[C@@H](CC(N)=O)C(=O)N[C@@H]([C@@H](C)O)C(=O)N[C@@H](C)C(=O)N[C@@H]([C@@H](C)O)C(=O)N1)[C@@H](C)O)C(=O)N[C@@H](CC(C)C)C(=O)N1CCC[C@H]1C(=O)N1CCC[C@H]1C(=O)N[C@H](C(=O)N[C@@H](CC(N)=O)C(=O)N[C@H](C(=O)NCC(=O)N[C@@H](CO)C(=O)N[C@@H](Cc1c[nH]cn1)C(=O)N[C@H](C(=O)N[C@@H](Cc1ccc(O)cc1)C(N)=O)[C@@H](C)O)C(C)C)[C@@H](C)O) [N-alpha-[(S)-4-Carboxy-4-(19-carboxynonadecanoylamino)butyryl]-[Glu14,His17,Gln21,His35)-pramlintide] | 0.169 | 0.156 |
